Experimental data as given in the DeepSol protein solubility set.

Test: soluble on expression in E. coli; label from the status in PepcDB or PDB records
In the case of “MNHSIPTLRTERLTLRPLAMADFPAYRDFMASPRSTGVGGPYDLPSTWGVFCHDLANWHFFGHGALMIDLGETGECIGQIGINHGPLFPEKELGWLLYEGHEGRGYAAEAAVALRDWAFETLNLPTLVSYVSPQNRKSAAVAERIGGTLDPLAPRSDPEDLVYRYHQVKTA”, the “soluble on expression in E. coli” value is reported as “soluble”. In the case of “MNHTADNCIFCKIIDGQILCSKVYEDEHVLAFLDISQVTKGHTLVIPKVHKQDIFALTPEIASHIFSVVPKIANAIKAEFNPVGFNLLNNNGEKAGQTVFHFHLHLIPRYGENDGFGAVWKSHQNEYTMENLQNIASTIANSVK”, the “soluble on expression in E. coli” value is reported as “not soluble”. For “MNIDTREITLEPADNARLLSLCGPFDDNIKQLERRLGIEINRRDNHFKLTGRPICVTAAADILRSLYVDTAPMRGQIQDIEPEQIHLAIKEARVLEQSAESVPEYGKAVNIKTKRGVIKPRTPNQAQYIANILDHDITFGVGPAGTGKTYLAVAAAVDALERQEIRRILLTRPAVEAGEKLGFLPGDLSQKVDPYLRPLYDALFEMLGFEKVEKLIERNVIEVAPLAYMRGRTLNDAFIILDESQNTTIEQMKMFLTRIGFNSKAVITGDVTQIDLPRNTKSGLRHAIEVLADVEEISFNFFHSEDVVRHPVVARIVNAYEAWEEAEQKRKAALAAERKREEQEQK”, the “soluble on expression in E. coli” value was “soluble”. For “MNIDTRIKFRHLVCFLEVARQGSLARASDALAISQPALSKSLKELETLLATTLFVRSKSGAALTDAGVAFMRFAGPSVQALRDGVSSLRSGEHETVTARLGVLSTAESLLVPEVVKRLHTRHPALIVSVMTGPSAYLLSQLRVGELDLVVGRMTDSPQIQGLTFEHLYHESMTLVVRNDHPLLAAPLKRESLEQFPLVLPLAGTTIRKFADSLFVQCGIQMPRQRLETLSLTLSRRYVQCSNAIWIAPLDAVLLELKGGTLVELDMGIREPGGSVGLCSNPALPLTRAAQWCVDELRTVGAAYREGQYA”, the “soluble on expression in E. coli” value was “not soluble”. With “MNIEQQLYDVVKQLIEQRYPNDWGGAAAIRVEDGTIYTSVAPDVINASTELCMETGAILEAHKFQKKVTHSICLARENEHSELKVLSPCGVCQERLFYWGPEVQCAITNAKQDIIFKPLKELQPYHWTEAYHDEMVKEWSTR” the “soluble on expression in E. coli” value was “soluble”. With “MNIFSKPDPKELERANKRELRKTNRDLESDRRQMDRREKELEQEIKKLAAKGHNDAARHLAKQLVQLRNQKTKSIGMSARISGVQAQNSHMQSMAKMGSAMGTTVKTMKAMNAQMPLEKVAANMREFQMAQEKMGLTEEMMNDTLDSILDAPGDADEQDAIVNQVLDEIGIEMNSKLANVPALPTKVSSTAPADFDDLEAQLARLRS” the “soluble on expression in E. coli” value was “not soluble”. For “MNIIDELEWRGAVNQQTDEEGLRKLVEEKKISLYCGVDPTGDSMHIGHLIPFMMMKRFQLAGHHPVILIGGATGTIGDPSGRQSERQLQTLEVVQHNVDALTAQMKKLFDFGGNSEVKMVNNYDWTHEINIIEFLRDYGKNFSINSMLAKDIVASRLDTGISFTEFTYQILQAMDFHHLYTKEDVQLQIGGSDQWGNITSGLDLIRKLEGHEAKVFGLTIPLLLKSDGTKFGKSAGGAVWLDPEKTTPFEFYQFWVNTDDRDVVKYLKYFTFLTKERIDELAVKVETEPHKREAQKVLAEEMTKFVHGEEALLQAVKITAALFSGDIKSLTADEIEQGFKEMPTFQSSKETKNIVEWLVDLGIEPSRRQAREDINNGAISMNGEKVTDVGTDVTVENSFDGRFIIIRKGKKNYSLVKLG”, the “soluble on expression in E. coli” value was “soluble”. For “MNIIIATTKSWNIKNAQKFKKENESKYNTTIITNKDELTFEKVKLINPEYILFPHWSWIIPKEIFENFTCVVFHMTDLPFGRGGSPLQNLIERGIKKTKISAIKVDGGIDTGDIFFKRDLDLYGTAEEIFMRASKIIFNDMIPELLTKRPVPQKQEGEATVFQRRKPEQSEISPDFDLEKIYDYIRMLDGEGYPRAFIKYGKYRLEFSRASMKNGKIIADVEIIEGDENE”, the “soluble on expression in E. coli” value was “soluble”. In the case of “MNIKEKIVVLRNTEDGSFLKSFKNKKDVLAYNVELTDSIQLASFLPEEAYNIQKEKIDNLAETLGCDVVVIEASYDLKFVDGEDVPELTKEQKVKSMVNGMFEQVFGGE”, the “soluble on expression in E. coli” value is reported as “not soluble”. For “MNILKIRHGQGHIAKIEAQSFVDGEGVRCSLYVSGCPFACENCYNKVAQNFKYGEPFHEDTLEEIMEYCAPNYISGLSILGGEPFCNVDITLKCAQTFRKRFGNTKSLWVWTGFLFEYLERDSAERKTLLELIDVLVDGPFINHLYRPNLPYKGSMNQRVIDVQASLQKRRVCEYIKSLEHHHHHH”, the “soluble on expression in E. coli” value was “not soluble”. In the case of “MNILLLDGGKAFGHSHGGLNRTLHKKAKEVLTALGHNVQETVIDAGYDVEAEIEKFVWMDAVIWQMPGWWMHEPWTVKKYIDEVLTAGHGKLYQSDGRHSVNPTEGYGTGGLLQGKKHMISLTWNAPIEAFTREGDFFEGKGVDVLYMHFHKANEFLGMTRLPTFLCNDVVKNPQVEKYLADYQAHLEKVFG”, the “soluble on expression in E. coli” value is reported as “not soluble”. With “MNILQNENLIIESSSFGAELTKIFSKKYDKNILWDGNKKYWGRQSPILFPIVGKLFDNETIIEENLYSMTQHGFARDMDFEIVDKGDTFVTYKLTDNESTLKKYPYSFELIINYTLNDNSIEVEWIVKNTDSKDIFFSIGGHPAFNLPFYKQNDFSKHYLEFKSKNDVEKINLNGSFTDDIIPIGKLKNLQLNPEVFKNDALIYTNIDEVSICNNDGSKYVTISMEDFPLVGIWTPYYSETNSTAPFLCIEPWYGLADSINSNKIYKDKKFINKLSKGKVFTASYNINIHLEHHHHHH” the “soluble on expression in E. coli” value was “soluble”. With “MNIMLTGATGHLGTHITNQAIANHIDHFHIGVRNVEKVPDDWRGKVSVRQLDYFNQESMVEAFKGMDTVVFIPSIIHPSFKRIPEVENLVYAAKQSGVAHIIFIGYYADQHNNPFHMSPYFGYASRLLSTSGIDYTYVRMAMYMDPLKPYLPELMNMHKLIYPAGDGRINYITRNDIARGVIAIIKNPDTWGKRYLLSGYSYDMKELAAILSEASGTEIKYEPVSLETFAEMYDEPKGFGALLASMYHAGARGLLDQESNDFKQLVNDQPQTLQSFLQENILEHHHHHH” the “soluble on expression in E. coli” value was “soluble”. In the case of “MNIQWFPGHMAKTRRILAENLKMVDVVVELLDARIPASSKNPEIDGIVKNKPKIVVLNKADLADEKISNEWSKWYNSQGYATIFIDSIKGTGIKQLKDQMRDIMKDRIERDRQRGRIFRPIRTMIVGIPNVGKSSLINKIAGKKSAVTGDRPGVTRNKQWINVNNEIQLMDTPGILWPKFEDKTVGINLAVTGAIKDEIIDTVELASILLEHLSKTYPENIKKRYKLESLQDKKGYELLEEAGKKRGCIISGGEVDLTRIAAIVLDEFRGGKIGRITLERPGDAVQELVAD”, the “soluble on expression in E. coli” value is reported as “not soluble”. With “MNIRNARPEDLMNMQHCNLLCLPENYQMKYYFYHGLSWPQLSYIAEDENGKIVGYVLAKMEEDPDDVPHGHITSLAVKRSHRRLGLAQKLMDQASRAMIENFNAKYVSLHVRKSNRAALHLYSNTLNFQISEVEPKYYADGEDAYAMKRDLTQMADEPASGPGSSCLLSGDLGPVSFHPLPSGLLAAAEAAPGAEGKGQAHGSGGLGEQSGEQRQRAFELRRGLS” the “soluble on expression in E. coli” value was “soluble”. In the case of “MNKFLGMYNTNTSNGGFVMSEKIYLKIDQQRYVKKPRVTIGDVMTVYCSDKDMIEKIGHITLAEFTLGKYDRKVFDALDVVGIIQKEYPDADIECLGECDFVVEYKKPEKEGTVH”, the “soluble on expression in E. coli” value is reported as “not soluble”. For “MNKILLVDDDRELTSLLKELLEMEGFNVIVAHDGEQALDLLDDSIDLLLLDVMMPKKNGIDTLKALRQTHQTPVIMLTARGSELDRVLGLELGADDYLPKPFNDRELVARIRAILRRSHWSEQQQNNDNGSPTLEVDALVLNPGRQEASFDGQTLELTGTEFTLLYLLAQHLGQVVSREHLSQEVLGKRLTPFDRAIDMHISNLRRKLPDRKDGHPWFKTLRGRGYLMVSAS”, the “soluble on expression in E. coli” value was “soluble”. With “MNKKLMTLAVFLFSSAASAASTDATVNLVNANGTGQKIGNITITETEYGLLFTPHLSSLPAGIHGFHIHENGSCDAGMKDGKPVAALAAGGHLDPQHTNKHLGPYNPEGHLGDLPALYVNQAGNADYPVLAPRLKSISQVKGHAIMIHTGGDNHEDHPNPLGGGGARIACGVIK” the “soluble on expression in E. coli” value was “not soluble”. In the case of “MNKKYPKINYIGNKEKIASWICDQLPSDVDTVADVFSGGCSFAYEAKKRGYRVITNDILAINYQIALALIENNHETLNDDDVAMIFSGSPHAGFMSQRYSEKFYFHDECQQLDLYRKNIGKLNNQYKRALAFTLMRRAMIRKMPYSRFTIPWEKVKQLRDEEYSYAKYGRRRAYHNESFQSHFLQNLDDYNQAVFNNGWRHHAFNQDIFDLLPNIQADAVYLDPPYTGTMNNYFGFYGLLDSYITSSIPKPFANHFMDKKQAVELFKRVINHLKPFKYWLLSYNNASYPNRDELEEMLGKNGRNVQILETPHVYKVTGKEKKQSHKEILFLVENT”, the “soluble on expression in E. coli” value is reported as “not soluble”. In the case of “MNKRYNTLNDYYRRIFGEKTFKVPIDAGFDCPNRDGTVAHGGCTFCTVSGSGDAIVAPEAPIRDQFYKEVDFMHRKWPDVKKYLVYFQNFTNTHDKVEVIRERYEQAINEPGVIGINIGTRPDCLPDVTILYLAELSQRLHVTLELGLQTTYEKTSKLINRAHSYQLYVETVKRVRDLAPKVEIVSHLINGLPGESHEMMLENVRRCVTDNDIDGIKLHLLHLMTNTRMQRDYHEGRLHLLSMEEYVNIICDQLEIIPKNIVIHRLTGDAPRDMLIGPMWSLNKWEVLNSIDREMERRNAYQGCKLEVNI”, the “soluble on expression in E. coli” value is reported as “not soluble”. With “MNKTILALDTATEACSVALLHNGNITTLDELSPRNHTQRILPMVDELLSQANISIKQVDVLAFGRGPGSFTGVRVGVSVAQGLALGANLPVVAISNLLAMAQAAYQQLRANNVIALIDARMNEVYFAQYQRIGEHWHTIVEEQVCSPETAIAQMKINDNSVVVGTGWAAYPQFYVAKLPLSVSDISLPSAKDMLELALKAVENGELQTALDIEPIYLRNEVTWQKLPHKRLEHHHHHH” the “soluble on expression in E. coli” value was “soluble”. For “MNKVSVVLPTYNCGTYVGVAVESVLQQTYSNYELIIVNDGSTDETDQALAPYLCNNGHIRYIKQGNKGHAGARNTGIRAATGDVIAFIDSDDKWLPEKLGEQVQAMEEDPEVGLVHCNVYGFGENQEVQVRGPLLTQEQLQGYSGYIFDNLYFRKIIITTTTVMIRKSCIDDVGMFDENMTRYGSEDRELFLRILWKYKARYVNKPLAMYRNRSDSEGQNYERMIKGQEYVYEKITSLYGLPQSSKRAVMSKMYQEWAREFYAKGRFADGLTNQVKAIRANPIDMNAYFALKRYARFLFSRATLEHHHHHH”, the “soluble on expression in E. coli” value was “not soluble”. With “MNLCRECYGIIGEGVVAEKCEACCNAFDRVEEFAEEIVKKMSEYEFETFNVGSRVWGSLKALQEYLSLKGIEYEIKQRFNTKLARAIEEKTGSKRTLNPDITVLFDLETFTFELQIRPVFIYGRYLKRVRNISQTRWLCGYCNGEGCEVCNFTGKKYVSSVEELIAMPAVRLFKARDAKLHGAGREDVDARMLGTGRPFVLEVIEPRKRFVDLKELEEAINSQKWVAVRDLEYTDAEKVREVKTERHRKTYRAKVVFEEKVERERLIEALESLKGEIRQRTPMRVSHRRADRVRVRRLYDARLIHHTGRVAVVEFEAEAGLYIKELVSGDNGRTRPSLAEKVGVNARVDRLDVIAVSLEHHHHHH” the “soluble on expression in E. coli” value was “soluble”. In the case of “MNLHVKTLSLMTWRSRFLEESFWSLEETAALAKQLPLKSPSENIFLHIVDLSDPKQIWKFVENFKQEHKLHVLINNAGCMVNKRELTEDGLEKNFAANTLGVYILTTGLIPVLEKEHDPRVITVSSGGMLVQKLNTNDLQSERTPFDGTMVYAQNKRQQVVLTERWAQGHPAIHFSSMHPGWADTPDRNEQELRKVVGEAQTASPLPRFLEIMMHEGKCQPQGHSSNDLEACWSSGGGEQNSLPDWPHQLHDLRQLTWALCSSFLLYKQGN”, the “soluble on expression in E. coli” value is reported as “not soluble”.
